# Source: publication PMC11053023, “Mechanism of Ψ-Pro/C-degron recognition by the CRL2^FEM1B ubiquitin ligase” (Nature Communications, 2024)
# Target: FEM1B-EB-EC ternary complex (human) (UniProt Q9UK73)
# Assay: SEC; peaks of the purified FEM1B-EB-EC complexes (Supplementary Fig. 1g); how the masses were found is not given
substance,measurement,value
FEM1B-EB-EC ternary complex (from UniProt Q9UK73 1-627; Q15370 1-118; Q15369 17-112),stoichiometry N,2
